In patent US20080311599:

Columns and labels:
p72 = molecular target: T1, p72
T1 chain: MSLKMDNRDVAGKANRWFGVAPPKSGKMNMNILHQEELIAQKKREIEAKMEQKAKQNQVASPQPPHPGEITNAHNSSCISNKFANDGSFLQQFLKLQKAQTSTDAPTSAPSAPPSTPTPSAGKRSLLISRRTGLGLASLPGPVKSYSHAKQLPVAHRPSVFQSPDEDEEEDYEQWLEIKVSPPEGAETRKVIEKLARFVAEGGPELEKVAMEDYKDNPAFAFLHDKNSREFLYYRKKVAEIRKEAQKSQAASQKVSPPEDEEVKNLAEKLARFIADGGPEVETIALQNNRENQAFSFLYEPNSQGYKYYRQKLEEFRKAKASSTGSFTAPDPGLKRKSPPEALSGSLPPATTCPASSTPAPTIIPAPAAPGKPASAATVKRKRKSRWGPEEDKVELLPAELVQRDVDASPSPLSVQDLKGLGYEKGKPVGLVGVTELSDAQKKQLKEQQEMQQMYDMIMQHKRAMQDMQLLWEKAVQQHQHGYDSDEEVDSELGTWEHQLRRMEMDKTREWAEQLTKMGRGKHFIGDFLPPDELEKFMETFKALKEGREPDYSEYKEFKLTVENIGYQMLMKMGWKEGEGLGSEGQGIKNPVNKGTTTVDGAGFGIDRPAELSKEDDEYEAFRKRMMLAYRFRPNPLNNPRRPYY

p72 (1-600) = molecular target: T2, p72 (1-600)
T2 chain: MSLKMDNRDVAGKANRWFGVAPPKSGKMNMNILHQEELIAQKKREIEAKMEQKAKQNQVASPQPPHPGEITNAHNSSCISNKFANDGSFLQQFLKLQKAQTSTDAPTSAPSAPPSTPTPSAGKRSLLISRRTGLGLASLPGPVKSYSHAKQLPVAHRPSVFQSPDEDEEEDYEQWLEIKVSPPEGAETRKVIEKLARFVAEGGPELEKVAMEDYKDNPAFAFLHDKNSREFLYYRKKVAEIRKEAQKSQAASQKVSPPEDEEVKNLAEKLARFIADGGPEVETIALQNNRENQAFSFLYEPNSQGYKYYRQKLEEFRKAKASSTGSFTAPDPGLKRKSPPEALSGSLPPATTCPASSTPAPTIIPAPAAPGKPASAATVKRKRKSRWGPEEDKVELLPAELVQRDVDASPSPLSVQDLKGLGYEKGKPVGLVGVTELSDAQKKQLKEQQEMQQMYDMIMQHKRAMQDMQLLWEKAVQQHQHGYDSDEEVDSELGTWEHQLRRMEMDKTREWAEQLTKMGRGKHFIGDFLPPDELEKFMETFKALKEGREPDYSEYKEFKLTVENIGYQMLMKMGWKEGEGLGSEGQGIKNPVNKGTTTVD

p72 (D600E) = molecular target: T3, p72 (D600E)
T3 chain: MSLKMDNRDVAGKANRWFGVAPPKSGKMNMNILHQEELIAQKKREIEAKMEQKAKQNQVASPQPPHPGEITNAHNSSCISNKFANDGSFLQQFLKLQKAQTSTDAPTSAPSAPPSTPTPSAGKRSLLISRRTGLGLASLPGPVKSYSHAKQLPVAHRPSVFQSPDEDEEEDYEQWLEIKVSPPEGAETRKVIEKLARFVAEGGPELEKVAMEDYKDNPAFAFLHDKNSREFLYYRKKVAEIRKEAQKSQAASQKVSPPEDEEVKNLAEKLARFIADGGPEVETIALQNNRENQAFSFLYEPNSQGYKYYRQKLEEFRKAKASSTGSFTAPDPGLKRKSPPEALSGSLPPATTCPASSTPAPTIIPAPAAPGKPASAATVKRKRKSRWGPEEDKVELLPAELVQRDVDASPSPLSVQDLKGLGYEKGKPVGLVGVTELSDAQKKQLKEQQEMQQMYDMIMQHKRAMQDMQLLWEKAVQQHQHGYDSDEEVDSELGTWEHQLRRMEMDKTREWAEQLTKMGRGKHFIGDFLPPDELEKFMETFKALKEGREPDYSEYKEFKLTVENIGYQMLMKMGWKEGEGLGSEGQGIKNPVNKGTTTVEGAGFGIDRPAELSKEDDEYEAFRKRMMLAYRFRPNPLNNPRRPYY

B1: recombinant active caspase-8 (protein)
chain 1: EELCGVMTISDSPREQDSESQTLDKVYQMKSKPRGYCLIINNHNFAKAREKVPKLHSIRDRNGTHLDAGALTTTFEELHFEIKPHHDCTVEQIYEILKIYQLMDHSNMDCFICCILSHGDKGIIYGTDGQEAPIYELTSQFTGLKCPSLAGKPKVFFI
chain 2: MDFSRNLYDIGEQLDSEDLASLKFLSLDYIPQRKQEPIKDALMLFQRLQEKRMLEESNLSFLKELLFRINRLDLLITYLNTRKEEMERELQTPGRAQISAYRFHFCRMSWAEANSQCQTQSVPFWRRVDHLLIRVMLYQISEEVSRSELRSFKFLLQEEISKCKLDDDMNLLDIFIEMEKRVILGEGKLDILKRVCAQINKSLLKIINDYEEFSKGEELCGVMTISDSPREQDSESQTLDKVYQMKSKPRGYCLIINNHNFAKAREKVPKLHSIRDRNGTHLDAGALTTTFEELHFEIKPHHDCTVEQIYEILKIYQLMDHSNMDCFICCILSHGDKGIIYGTDGQEAPIYELTSQFTGLKCPSLAGKPKVFFIQACQGDNYQKGIPVETDSEEQPYLEMDLSSPQTRYIPDEADFLLGMATVNNCVSYRNPAEGTWYIQSLCQSLRERCPRGDDILTILTEVNYEVSNKDDKKNMGKQMPQPTFTLRKKLVFPSD
For B1, the “cleavage of 35S-labelled p72 in vitro, SDS-PAGE and phospho-imaging” value (p72) was “This band disappears after addition of activated caspase-8 for 1 hour and a new smaller fragment corresponding to 68 kDa appears (lane 4)”, the “cleavage of 35S-labelled p72 mutant in vitro, SDS-PAGE and phospho-imaging” value (p72 (1-600)) was “The p72 1-600 mutant co-migrates with the 68 kDa fragment produced after cleavage of the wild type p72 and is not further cleaved by addition of caspase-8 (lanes 2 and 5)” and the “cleavage of 35S-labelled p72 mutant in vitro, SDS-PAGE and phospho-imaging” value (p72 (D600E)) was “the same protein profile of p72 D600E mutant is observed in the presence or absence of caspase-8”.
